For assay [1], the target named is T1, soluble CD109 protein (full-length recombinant CD109) (human, UniProt Q6YHK3 22-1420, limits assumed).
T1 construct: also called FL CD109; CD109 soluble full-length protein
T1 sequence: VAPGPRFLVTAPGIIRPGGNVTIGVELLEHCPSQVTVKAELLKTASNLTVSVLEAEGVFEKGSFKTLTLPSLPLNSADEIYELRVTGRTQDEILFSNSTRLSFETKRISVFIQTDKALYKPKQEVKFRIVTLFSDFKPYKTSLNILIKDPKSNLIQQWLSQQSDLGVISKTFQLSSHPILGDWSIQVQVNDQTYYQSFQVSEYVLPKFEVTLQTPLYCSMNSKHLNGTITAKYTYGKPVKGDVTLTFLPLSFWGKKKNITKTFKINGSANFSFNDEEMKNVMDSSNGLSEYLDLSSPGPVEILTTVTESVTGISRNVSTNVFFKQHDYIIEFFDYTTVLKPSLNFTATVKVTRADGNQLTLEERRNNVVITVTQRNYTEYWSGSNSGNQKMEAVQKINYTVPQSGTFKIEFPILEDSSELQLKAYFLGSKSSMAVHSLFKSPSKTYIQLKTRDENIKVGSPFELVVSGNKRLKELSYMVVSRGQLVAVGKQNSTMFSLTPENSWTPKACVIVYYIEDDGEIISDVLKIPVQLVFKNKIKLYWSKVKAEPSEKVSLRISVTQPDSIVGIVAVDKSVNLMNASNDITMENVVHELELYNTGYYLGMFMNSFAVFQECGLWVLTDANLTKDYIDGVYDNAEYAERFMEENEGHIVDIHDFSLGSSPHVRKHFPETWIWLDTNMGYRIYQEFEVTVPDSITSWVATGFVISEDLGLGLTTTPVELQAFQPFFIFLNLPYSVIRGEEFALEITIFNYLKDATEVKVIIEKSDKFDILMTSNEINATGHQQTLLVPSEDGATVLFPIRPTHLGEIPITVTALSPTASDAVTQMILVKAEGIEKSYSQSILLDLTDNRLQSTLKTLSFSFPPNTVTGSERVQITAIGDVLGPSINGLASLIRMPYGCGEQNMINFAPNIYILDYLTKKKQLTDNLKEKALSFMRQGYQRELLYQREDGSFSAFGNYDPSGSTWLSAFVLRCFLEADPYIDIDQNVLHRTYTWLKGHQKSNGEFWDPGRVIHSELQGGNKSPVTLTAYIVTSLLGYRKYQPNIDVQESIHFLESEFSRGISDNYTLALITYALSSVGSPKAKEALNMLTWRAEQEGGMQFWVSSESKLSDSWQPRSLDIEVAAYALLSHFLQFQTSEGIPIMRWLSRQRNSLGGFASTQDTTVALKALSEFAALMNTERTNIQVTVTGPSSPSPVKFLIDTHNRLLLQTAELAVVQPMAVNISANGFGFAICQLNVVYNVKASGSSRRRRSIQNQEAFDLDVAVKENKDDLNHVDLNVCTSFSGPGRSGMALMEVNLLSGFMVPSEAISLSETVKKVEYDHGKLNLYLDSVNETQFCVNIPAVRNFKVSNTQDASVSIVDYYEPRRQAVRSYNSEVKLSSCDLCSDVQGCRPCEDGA
Kind of assay: SPR, BIACORE 3000; CD109 amine-coupled on CM5 chip, TGF-β as analyte. The protocol:
(§1) Surface plasmon resonance assay: CD109 protein and peptides were tested for their ability to bind TGF-β using surface plasmon resonance. CD109 protein and peptides were amine-coupled onto a gold-dextran CM5 sensor chip as the ligands and TGF-β1/2/3 in HBS-ET buffer as the analytes were pumped across the CD109 amine-coupled sensor chip and binding response was measured using BIACORE 3000™ SPR detection system.
Background: In SPR one partner is held on a chip, and binding of the other changes the refractive index at the surface.

Assay [2] concerns the target T2, Transforming Growth Factor-β1 (TGF-β1) (UniProt P01137 279-390, 125I label in the affinity labeling assays).
T2 construct: The background describes TGF-β as a 25 kDa growth factor; also called I125TGF-β1
As to the kind of experiment: SPR, BIACORE 3000; Peptide A amine-coupled on CM5 chip, TGF-β1 as analyte. As for the experimental part: as §1

Two molecules from patent US20120079614A1 (ROYAL INSTITUTION FOR THE ADVANCEMENT OF LEARNING MCGILL …, published 2012) can be followed below.

T2 sequence (P01137 279-390 limits assumed): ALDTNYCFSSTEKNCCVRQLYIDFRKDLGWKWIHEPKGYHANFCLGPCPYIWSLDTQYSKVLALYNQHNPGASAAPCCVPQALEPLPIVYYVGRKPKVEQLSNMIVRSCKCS

B1: TGF-β2 (ligand, UniProt P61812 303-414, looked up)
chain: ALDAAYCFRNVQDNCCLRPLYIDFKRDLGWKWIHEPKGYNANFCAGACPYLWSSDTQHSRVLSLYNTINPEASASPCCVSQDLEPLTILYYIGKTPKIEQLSNMIVKSCKCS
Regarding B1, the Kd (usually the free concentration of one partner at which half of the binding sites on the other are occupied at equilibrium, for simple one-to-one binding) in assay [1] came out at 1 nM.

B2: CD109 Peptide A (CD109 amino acids 606-766) (peptide)
chain: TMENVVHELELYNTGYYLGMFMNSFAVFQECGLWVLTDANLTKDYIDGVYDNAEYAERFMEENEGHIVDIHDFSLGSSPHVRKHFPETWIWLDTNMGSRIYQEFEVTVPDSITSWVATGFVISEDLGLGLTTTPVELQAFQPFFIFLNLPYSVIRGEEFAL
notes: also called CD109-based peptide
B2 came in with a Kd in assay [2] of 10 nM.
